The target of assay [1] is T1, human SIRPα variant 1 (human, UniProt P78324 31-504).
T1 construct: full length ORF on transfected CHO-K1 or HEK293 cells; entry includes the signal peptide; also called hSIRPαV1; SIRPαV1
Nature of the assay: CELISA, CHO-K1 transfectants. The method, then: (§1) Reactivity was confirmed using CHO-K1 cells (ATCC CCL-61) that had been transiently transfected, using Lipofectamine 2000, with cDNA encoding the full length open reading frame of hSIRPαV1, hSIRPαV2, hSIRPβ1, hSIRPβL, and hSIRPγ subcloned into the pCI-neo vector (Promega, Madison, Wis.). CHO-K1.hSIRPαV1, CHO-K1.hSIRPαV2, CHO-K1.hSIRPβ1, CHO-K1.hSIRPβL, and CHO-K1.hSIRPγ cells were seeded in culture medium (DMEM-F12 (Gibco) supplemented with 5% New Born Calf Serum (BioWest) and Pen/Strep (Gibco)) in 96-well flat-bottom tissue culture plates and incubated at 37° C., 5% CO₂ and 95% humidity for 24 hours. Subsequently, culture medium was removed and cells were incubated for 1 hour at 37° C., 5% CO₂ and 95% humidity with purified hSIRPα antibodies (used at 10 μg/mL and dilutions thereof). Next, cells were washed with PBS-T and incubated for 1 hour at 37° C., 5% CO₂ and 95% humidity with goat-anti-mouse IgG-HRP (Southern Biotech). Subsequently, cells were washed three times with PBS-T and immunoreactivity against hSIRPαV1, hSIRPαV2, hSIRPβ1, hSIRPβL, and hSIRPγ was visualized with TMB Stabilized Chromogen (Invitrogen). Reactions were stopped with 0.5 M H₂SO₄ and absorbances were read at 450 and 610 nm.
(§2) The KWAR23 antibody cross-reacts with all members of the SIRP receptor family tested: it binds to hSIRPαV1, hSIRPαV2, hSIRPβ1, hSIRPβL, and hSIRPγ.

The target of assay [2] is T2, hSIRPβ1 transcript variant 3/hSIRPβL (human, UniProt Q5TFQ8 30-398).
T2 construct: also called human SIRPβL
T2 sequence (Q5TFQ8 30-398 limits assumed, change not shown): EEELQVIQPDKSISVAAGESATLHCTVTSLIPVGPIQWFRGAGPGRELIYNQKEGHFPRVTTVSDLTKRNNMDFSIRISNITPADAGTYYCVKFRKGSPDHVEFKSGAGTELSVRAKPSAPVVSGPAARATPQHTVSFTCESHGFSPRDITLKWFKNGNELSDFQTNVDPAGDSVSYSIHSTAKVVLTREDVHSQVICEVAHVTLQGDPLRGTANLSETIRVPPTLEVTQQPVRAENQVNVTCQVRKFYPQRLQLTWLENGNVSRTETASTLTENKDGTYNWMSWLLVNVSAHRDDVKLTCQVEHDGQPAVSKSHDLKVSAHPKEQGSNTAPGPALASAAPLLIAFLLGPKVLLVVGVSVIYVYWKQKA
Description: CELISA, CHO-K1 transfectants. Here is the method:
as §1, §2

Assay [3] concerns the target T3, human SIRPα variant 2 (human, UniProt P78324 31-504).
T3 construct: full length ORF on transfected CHO-K1 cells; also called hSIRPαV2; SIRPαV2
Description: CELISA, CHO-K1 transfectants. Here is the method: as §1, §2

Another assay concerns the target T4, human SIRPγ (human, UniProt Q9P1W8 29-387).
T4 construct: on transfected CHO-K1 cells; also called hSIRPγ
Description: CELISA, CHO-K1 transfectants. The method, then: as §1, §2

For assay [4], the target named is T1, human SIRPα variant 1. Description: CELISA, CHO-K1 transfectants, domain exchange study. From the text:
(§3) Based on the fold of SIRPα/β1/γ, the extracellular region can be subdivided into three separate domains: the Ig-like (immunoglobulin-like) V-type (IgV), Ig-like C1-type (IgC1), and Ig-like C2-type (IgC2) domain. The IgV domain is also known as the ligand-binding N-terminal domain of SIRPα and SIRPγ (which binds to CD47). The human SIRPβ1/γ mutants were designed based on the full length hSIRPβ1 sequence (SEQ ID NO: 38) and each individual Ig-like domain was substituted for the equivalent domain of human SIRPγ (SEQ ID NO: 40). […] Binding of hSIRPα.40A to the exchange mutants was tested using CELISA. To this end, CHO-K1 cells were transiently transfected, using Lipofectamine 2000, with the pCI-neo vectors encoding hSIRPαV1, hSIRPαV2, hSIRPβ1, hSIRP-VγC1βC2β, hSIRP-VβC1γC2β, and hSIRP-VβC1βC2γ, respectively. The transfected cells were cultured at 37° C., 5% CO₂ and 95% humidity in medium (DMEM-F12 (Gibco) with 5% New Born Calf serum (Biowest) and Pen/Strep (Gibco)) until confluent. Subsequently, cells were trypsinized and seeded in 96-well flat-bottom tissue culture plates and cultured at 37° C., 5% CO₂ and 95% humidity in culture medium until confluent. Then, culture medium was removed and cells were incubated for 1 hour at 37° C., 5% CO₂ and 95% humidity with hSIRPα.40A, hSIRPα.50A, and anti-hSIRPα clone SE5A5 antibodies. Next, cells were washed with PBS-T and incubated for 1 hour at 37° C., 5% CO₂ and 95% humidity with goat-anti-mouse IgG-HRP conjugate (Southern Biotech). After that, cells were washed three times with PBS-T and anti-hSIRPα immunoreactivity was visualized with TMB Stabilized Chromogen (Invitrogen). Reactions were stopped with 0.5 M H₂SO₄ and absorbances were read at 450 and 610 nm.

Assay [5] has as its target T3, human SIRPα variant 2. The assay is described as above.
Source text: as §3

Assay [6] addresses T1, human SIRPα variant 1. Nature of the assay: CELISA, CHO-K1 transfectants, point mutant study. The method, then: Amino acids in the hSIRPα IgV domain that are altered in hSIRPβ1 were mutated by using the QuikChange II Site-Directed Mutagenesis Kit (Stratagene) and the full length hSIRPαV1 sequence (SEQ ID NO: 33) as donor cDNA. Binding of hSIRPα.40A to hSIRPαV1 point mutants was tested using CELISA. To this end, CHO-K1 cells were transiently transfected, using Lipofectamine 2000, with cDNA encoding the full length open reading frame of hSIRPαV1 and mutants thereof, and hSIRPβ1 subcloned into the pCI-neo vector. Transfected cells were seeded in culture medium (DMEM-F12 (Gibco) supplemented with 5% New Born Calf Serum (BioWest) and Pen/Strep (Gibco)) in 96-well flat-bottom tissue culture plates and incubated at 37° C., 5% CO₂ and 95% humidity for 24 hours. Subsequently, culture medium was removed and cells were incubated for 1 hour at 37° C., 5% CO₂ and 95% humidity with purified hSIRPα antibodies (used at 10 μg/mL and dilutions thereof). Next, cells were washed with PBS-T and incubated for 1 hour at 37° C., 5% CO₂ and 95% humidity with goat-anti-mouse IgG-HRP (Southern Biotech). Subsequently, cells were washed three times with PBS-T and immunoreactivity against hSIRPαV1, hSIRPαV1 mutants, and hSIRPβ1 was visualized with TMB Stabilized Chromogen (Invitrogen). Reactions were stopped with 0.5 M H₂SO₄ and absorbances were read at 450 and 610 nm. […]

T1 sequence (P78324 31-504 limits assumed, change not shown): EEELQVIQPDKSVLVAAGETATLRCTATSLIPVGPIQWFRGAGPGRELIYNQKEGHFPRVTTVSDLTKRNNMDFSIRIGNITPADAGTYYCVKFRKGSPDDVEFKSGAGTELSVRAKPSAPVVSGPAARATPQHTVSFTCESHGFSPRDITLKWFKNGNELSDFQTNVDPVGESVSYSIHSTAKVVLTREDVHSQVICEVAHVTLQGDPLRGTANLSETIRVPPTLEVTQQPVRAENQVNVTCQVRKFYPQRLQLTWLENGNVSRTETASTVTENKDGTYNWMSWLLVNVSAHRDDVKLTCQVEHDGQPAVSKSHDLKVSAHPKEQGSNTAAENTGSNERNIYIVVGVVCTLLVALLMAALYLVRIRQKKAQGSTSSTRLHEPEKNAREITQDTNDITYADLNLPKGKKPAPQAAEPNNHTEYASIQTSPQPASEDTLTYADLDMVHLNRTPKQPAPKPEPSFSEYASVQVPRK
T3 sequence (P78324 other isoform, or with tags, fused parts or gaps mutant limits assumed): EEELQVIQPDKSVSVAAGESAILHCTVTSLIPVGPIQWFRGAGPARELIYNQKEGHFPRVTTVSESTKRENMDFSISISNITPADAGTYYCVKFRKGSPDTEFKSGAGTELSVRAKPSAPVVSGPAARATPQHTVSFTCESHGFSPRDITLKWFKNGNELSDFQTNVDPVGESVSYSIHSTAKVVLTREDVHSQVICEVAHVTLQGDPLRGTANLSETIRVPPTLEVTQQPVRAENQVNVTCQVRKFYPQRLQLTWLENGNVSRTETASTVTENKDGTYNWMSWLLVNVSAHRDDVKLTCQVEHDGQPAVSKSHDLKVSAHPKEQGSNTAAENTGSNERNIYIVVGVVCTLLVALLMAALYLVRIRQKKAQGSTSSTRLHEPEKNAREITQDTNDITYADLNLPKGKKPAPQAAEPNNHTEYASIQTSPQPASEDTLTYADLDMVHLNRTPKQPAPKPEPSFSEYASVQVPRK
T4 sequence (Q9P1W8 29-387 limits assumed): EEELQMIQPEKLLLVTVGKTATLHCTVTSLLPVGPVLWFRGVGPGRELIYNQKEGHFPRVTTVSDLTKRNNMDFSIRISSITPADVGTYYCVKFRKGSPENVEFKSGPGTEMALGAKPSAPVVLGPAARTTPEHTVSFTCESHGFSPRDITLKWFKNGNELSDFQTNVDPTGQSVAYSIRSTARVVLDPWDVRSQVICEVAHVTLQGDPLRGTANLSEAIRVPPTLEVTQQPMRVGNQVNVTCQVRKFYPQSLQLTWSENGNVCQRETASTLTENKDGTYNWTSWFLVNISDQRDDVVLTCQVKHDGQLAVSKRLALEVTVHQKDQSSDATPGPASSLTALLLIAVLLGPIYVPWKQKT

B1: KWAR23 (antibody, V domains shown)
VH: EVQLQQSGAELVKPGASVKLSCTASGFNIKDYYIHWVQQRTEQGLEWIGRIDPEDGETKYAPKFQDKATITADTSSNTAYLHLSSLTSEDTAVYYCARWGAYWGQGTLVTVSS
VL: QIVLTQSPAIMSASPGEKVTLTCSASSSVSSSYLYWYQQKPGSSPKLWIYSTSNLASGVPARFSGSGSGTSYSLTISSMEAEDAASYFCHQWSSYPRTFGAGTKLELK
With B1, the EC50 (commonly the concentration giving half of the maximal effect) with human SIRPα variant 1 [1] was 0.067 nM; in assay [2], 0.097 nM; in the assay with human SIRPα variant 2 [3] it was 0.062 nM; with human SIRPγ it was 0.043 nM.

B2: hSIRPα.50A (antibody, V domains shown)
VH: QVQLQQSGPELVKPGASVRISCKASGFTFTNYYIHWVKQRPGQGLEWIGWIYPGNVNTKYNEKFKAKATLTADKSSTTAYMQLSSLASEDSAVYFCARPTIIATDFDVWGAGTTVTVSS
VL: DIVMTQSHKFMSTSVGDRVNITCKASQGVGTAVGWYQQKPGQSPRLLIYWASTRHTGVPDRFTGSGSGTDFSLAISNVQSEDLADYFCQQYSTYPFTFGGGTNLEIK
notes: light chain constant domain not tied; also called mouse hSIRPα.50A; hSIRPα.50A.mIgG1
Take B2: the EC50 in the assay with human SIRPα variant 1 [4] stood at 0.968 nM; with human SIRPα variant 2 [5], 0.821 nM; with human SIRPα variant 1 [6], 0.534 nM; with human SIRPα variant 1 [1] it was 1.63 nM; in assay [2], 0.639 nM; with human SIRPα variant 2 [3], 1.63 nM. The EC50 with human SIRPγ was 1.48 nM.

B3: hSIRPα.40A (antibody, mouse IgG1, kappa, V domains shown)
VH: EVQFQQSGTVLARPGTSVKMSCKASGSTFTSYWMHWVKQGPGQGLQWIGAIYPVNNDTTYNQKFKGKAELTVVTSTSTAYMEVSSLTNEDSAVYYCTRSFYYSLDAAWFVYWGQGTLVTVSA
VL: DIQMTQSPSSLSASLGERVSLTCRASQDIGSRLNWLQQEPDGTIKRLIYATSSLDSGVPKRFSGSRSGSDYSLTISGLESEDFVDYYCLQYASSPFTFGGGTKLEINR
notes: mouse antibody, full chains without signal peptide; also called mouse hSIRPα.40A
For the molecule B3, the EC50 with human SIRPα variant 1 [4] was 0.133 nM; in the assay with human SIRPα variant 2 [5] it was 0.101 nM; with human SIRPα variant 1 [6], 0.065 nM.

For the origin of these results see US20180312587A1 (ADURO BIOTECH HOLDINGS EUROPE B V, published 2018).
